Source: publication doi:10.1101/2023.05.26.542392

Molecular target: Full-length SARS-Cov-2-Nucleocapsid (FLN), WT (SARS-CoV-2)
Test: AUC

Full-length SARS-Cov-2-Nucleocapsid (FLN), WT (natural protein)
stoichiometry N: 2
